Results from the RNAGym collection of RNA variant scans (doi:10.1021/acssynbio.7b00057).

B1: Pistol ribozyme (parent)
chain: GGGUCGUUGUUCCAUAAUCGCGUGGAUAUGGCACGCAAGUUUCUACCGGGCACCGUAAAUGUCCGACUGGAGCCGUUCGGGCGGCUAUAAACAGACCUCAGGCCCGAAGCGUGGCGGCACCUGCCGCCGGUGGUAAAAAAGAUCGGAAGAGCACACGUCU

Variants of: B1
Test: aptazyme ON/OFF ratio, guanine; higher = stronger switching; co-transcriptional cleavage with and without guanine

Variant	aptazyme ON/OFF ratio
G9U U10C C12A	1.77
G9U U10G U11C C12G C13U	1.27
G9U U10G U11C C12G C13G	1.06
G9U U10G U11C C12G C13A	1.27
G9U U10G C12A C13G	1.17
G9U U10G C12A C13U	1.45
G9U U10G C12A C13A	0.843
G9U U10C U11G C13A	1.36
G9U U10C U11G C13U	1.52
G9U U10C U11G C13G	1.18
G9U U10A U11C C12A C13A	1.06
G9U U10A U11C C12A C13G	0.991
G9U U10A U11C C12A C13U	1.41
G9U U10A U11G C13G	1.22
G9U U10A U11G C13A	1.56
G9U U10A U11G C13U	1.72
G9C U10G U11G C12G	1.16
G9C U10G U11G C12U	1.13
G9C U10G U11G C12A	1.18
G9C U10G U11C C12A C13G	1.15
G9C U10G U11C C12A C13A	1.22

Variant	aptazyme ON/OFF ratio
G9C U10G U11C C12A C13U	1.25
G9C U11G	2.2
G9C U11A	1.78
G9C U11C	1.18
G9U U10A U11C C12U C13U	1.5
G9U U10A U11C C12U C13G	1.39
G9U U10A U11C C12U C13A	1.11
G9C U10G U11G C13U	1.13
G9C U10G U11G C13G	1.12
G9C U10G U11G C13A	1.09
G9C U11A C12G C13A	1.2
G9C U11A C12G C13G	1.24
G9C U11A C12G C13U	1.22
G9C U10G U11C C12U C13G	1.09
G9C U10G U11C C12U C13U	1.24
G9C U10G U11C C12U C13A	1.2
G9U U10C C12G C13U	1.18
G9U U10C C12G C13A	1.35
G9U U10C C12G C13G	1.32
G9U U10A U11A C12U C13U	1.08
G9U U10A U11A C12U C13A	1.09

Variant	aptazyme ON/OFF ratio
G9U U10A U11A C12U C13G	1.7
G9U U10G U11G C12G	1.82
G9U U10G U11G C12U	1.33
G9U U10G U11G C12A	1.75
G9U U10G C12U C13G	1.66
G9U U10G C12U C13A	1.35
G9U U10G C12U C13U	1.26
G9U U10A U11A C12A C13G	1.29
G9U U10A U11A C12A C13U	1.41
G9U U10A U11A C12A C13A	1.37
G9U U10G C12U	1.62
G9U U10G C12A	1.47
G9U U10G C12G	1.64
G9C U10G U11A C12U C13A	1.09
G9C U10G U11A C12U C13U	1.08
G9C U10G U11A C12U C13G	1.09
G9C U11G C12G	1.27
G9C U11G C12U	1.84
G9C U11G C12A	1.11
G9U U11A C12A	2.63
G9U U11A C12U	1.47

Variant	aptazyme ON/OFF ratio
G9U U11A C12G	1.55
G9C U10G U11G C12U C13A	1.09
G9C U10G U11G C12U C13G	1.08
G9C U10G U11G C12U C13U	1.05
G9C U10G U11A C13A	1.08
G9C U10G U11A C13U	1.05
G9C U10G U11A C13G	1.09
G9U C12U C13U	1.34
G9U C12U C13G	1.3
G9U C12U C13A	1.23
G9U U10A U11A C13G	1.17
G9U U10A U11A C13A	1.38
G9U U10A U11A C13U	1.25
G9U U10C U11A C12G	1.76
G9U U10C U11A C12A	1.47
G9U U10C U11A C12U	1.89
G9U U10C U11A C12U C13G	1.35
G9U U10C U11A C12U C13A	1.49
G9U U10C U11A C12U C13U	1.54
G9C U10G U11A C12A C13U	1.52
G9C U10G U11A C12A C13G	1.06
